Results as given in patent US20230348603A1 (VERSEAU THERAPEUTICS, published 2023).

T1: Human VSIG4-L-His (human, UniProt Q9Y279 20-283)
T1 construct: long isoform ECD with His tag; also called hVSIG4-L
T1 sequence: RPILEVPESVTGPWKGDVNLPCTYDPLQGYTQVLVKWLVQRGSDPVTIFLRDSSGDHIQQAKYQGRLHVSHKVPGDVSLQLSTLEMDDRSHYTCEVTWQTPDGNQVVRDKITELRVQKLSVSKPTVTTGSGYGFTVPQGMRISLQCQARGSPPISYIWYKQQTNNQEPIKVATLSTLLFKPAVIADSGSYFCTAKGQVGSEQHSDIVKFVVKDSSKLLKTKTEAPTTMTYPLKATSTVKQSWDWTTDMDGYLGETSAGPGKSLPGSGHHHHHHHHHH

T2: Cynomolgus Monkey VSIG4-L-His (cynomolgus monkey)
T2 construct: ECD with His tag; also called cyVSIG4-L; cyno VSIG4-L-His
T2 chain: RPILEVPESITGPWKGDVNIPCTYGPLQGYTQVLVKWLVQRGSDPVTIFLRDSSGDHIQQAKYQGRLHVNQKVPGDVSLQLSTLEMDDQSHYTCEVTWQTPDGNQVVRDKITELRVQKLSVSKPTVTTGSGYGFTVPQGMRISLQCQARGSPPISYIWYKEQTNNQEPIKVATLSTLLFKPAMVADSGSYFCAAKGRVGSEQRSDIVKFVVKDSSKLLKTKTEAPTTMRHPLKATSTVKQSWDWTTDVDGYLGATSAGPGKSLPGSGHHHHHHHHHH


Tests used:
Human VSIG4-L-His = target: T1, Human VSIG4-L-His; test: BLI, IgG on AHC sensor, antigen 100 nM
[1] = target: T2, Cynomolgus Monkey VSIG4-L-His; test: BLI, IgG on AHC sensor, antigen 100 nM

| KD relative to parental chimera (Human VSIG4-L-His) [fold] | KD relative to parental chimera [1] [fold] | Binder |
| --- | --- | --- |
| 1.1 | 1.2 | h14D12.A humanized IgG4 (S228P) kappa (antibody, V domains shown) VH: QIQLVQSGSELKKPGASVKVSCKASGYTFTNYGMNWVRQAPGQGLEWMGLINTYTGEPTYADGFTGRFVFSLDTSASTAYLQISSLKAEDTAVYFCARERIYGYLHYFDYWGQGTTVTVSS VL: DVVMTQSPDSLAVSLGERATINCKASQSVDYDGDSYMNWYQQKPGQPPKLLIYAASNLESGVPDRFSGSGSGTDFTLTISSLQAEDVAVYYCQQSNEDPRTFGGGTKLEIKR |
| 1 | 1.3 | h14D12.B humanized IgG4 (S228P) kappa (antibody, V domains shown) VH: QIQLVQSGAEVKKPGASVKVSCKASGYTFTNYGMNWVRQAPGQGLEWMGLINTYTGEPTYADKFQGRVTMTLDTSTSTAYMELSSLRSEDTAVYYCARERIYGYLHYFDYWGQGTTVTVSS VL: DVVMTQSPDSLAVSLGERATINCKASQSVDYDGDSYMNWYQQKPGQPPKLLIYAASNLESGVPDRFSGSGSGTDFTLTISSLQAEDVAVYYCQQSNEDPRTFGGGTKLEIKR |
| 1.4 | 1.5 | h14D12.C humanized IgG4 (S228P) kappa (antibody, V domains shown) VH: QIQLVQSGAEVKKPGASVKVSCKASGYTFTNYGMNWVRQAPGQGLEWMGLINTYTGEPTYADKFQGRVTFTLDTSASTAYMELSSLRSEDTAVYFCARERIYGYLHYFDYWGQGTTVTVSS VL: DVVMTQSPDSLAVSLGERATINCKASQSVDYDGDSYMNWYQQKPGQPPKLLIYAASNRESGVPDRFSGSGSGTDFTLTISSLQAEDVAVYYCQQSNEDPRTFGGGTKLEIKR |
| 1 | 1 | h14D12.D humanized IgG4 (S228P) kappa (antibody) heavy: not shown light: DVQMTQSPSSLSASVGDRVTITCRASQSVDYDGDSYMNWYQQKPGKAPKLLIYAASNLESGVPSRFSGSGSGTDFTLTISSLQPEDFATYYCQQSNEDPRTFGGGTKLEIKRTVAAPSVFIFPPSDEQLKSGTASVVCLLNNFYPREAKVQWKVDNALQSGNSQESVTEQDSKDSTYSLSSTLTLSKADYEKHKVYACEVTHQGLSSPVTKSFNRGEC |
| 0.9 | 0.9 | h14D12.E humanized IgG4 (S228P) kappa (antibody, V domains shown) VH: QIQLVQSGSELKKPGASVKVSCKASGYTFTNYGMNWVRQAPGQGLEWMGLINTYTGEPTYADGFTGRFVFSLDTSVSTAYLQISSLKAEDTAVYYCARERIYGYLHYFDYWGQGTTVTVSS VL: DVQMTQSPSSLSASVGDRVTITCRASQSVDYDGDSYMNWYQQKPGKAPKLLIYAASNLESGVPSRFSGSGSGTDFTLTISSLQPEDFATYYCQQSNEDPRTFGGGTKLEIKR |
| 1 | 1.1 | h14D12.G humanized IgG4 (S228P) kappa (antibody) heavy: not shown light: DIQMTQSPSSLSASVGDRVTITCRASQSVDYDGDSYMNWYQQKPGKAPKLLIYAASNLESGVPSRFSGSGSGTDFTLTISSLQPEDFATYYCQQSNEDPRTFGGGTKLEIKRTVAAPSVFIFPPSDEQLKSGTASVVCLLNNFYPREAKVQWKVDNALQSGNSQESVTEQDSKDSTYSLSSTLTLSKADYEKHKVYACEVTHQGLSSPVTKSFNRGEC |
| 2.5 | 0.9 | h13H11.B humanized IgG4 (S228P) kappa (antibody, V domains shown) VH: QIQLVQSGAEVKKPGASVKVSCKASGYTFENFGMNWVRQAPGQRLEWMGWINTYTGEATYADKFQGRVTFTLDTSASTAYMELSSLRSEDTAVYFCARDGGFRHFDVWGQGTTVTVSS VL: ETQVTQSPSSLSASVGDRVTITCQTSTDIDDDMNWYQQKPGKAPKLLISEGNTLRPGVPSRFSSSGYGTDFTFTISSLQPEDIATYYCLQSDNLPLTFGGGTKLEIKR |
| 1.4 | 1.1 | h13H11.E humanized IgG4 (S228P) kappa (antibody, V domains shown) VH: QIQLVQSGAEVKKPGASVKVSCKASGYTFENFGMNWVRQAPGQRLEWMGWINTYTGEATYADKFQGRVTITLDTSASTAYMELSSLRSEDTAVYYCARDGGFRHFDVWGQGTTVTVSS VL: DTQVTQSPSSLSASVGDRVTITCQTSTDISNYMNWYQQKPGKAPKLLISEGNTLRPGVPSRFSSSGSGTDFTFTISSLQPEDIATYYCLQSDNLPLTFGGGTKLEIKR |
| 0.5 | 0.3 | h14C05.E humanized IgG4 (S228P) kappa (antibody, V domains shown) VH: QVQLVQSGAEVKKPGASVKVSCKASGYTFTNYGMNWVRQAPGQGLEWMGSINTYTGEATYADKFQGRVTMTLDTSTNTAYMELSSLRSEDTAVYYCARGDYYGRGTWFAYWGQGTLVTVSS VL: ETVVTQSPATLSLSPGERATLSCRASQDVSTAVAWYQQKPGQAPRLLIYSASYRYPGIPARFSGSGSGTDFTLTISSLEPEDFAVYYCQQDYSSPWTFGGGTKLEIKR |
| 0.7 | 0.7 | h14C05.B humanized IgG4 (S228P) kappa (antibody, V domains shown) VH: QVQLVQSGSELKKPGASVKVSCKASGYTFTNYGMNWVRQAPGQGLEWMGSINTYTGEATYADGFTGRFVFSLDTSVNTAYLQISSLKAEDTAVYYCARGDYYGRGTWFAYWGQGTLVTVSS VL: ETQVTQSPSSLSASVGDRVTITCRASQDVSTAVAWYQQKPGKAPKLLIYSASYRYPGVPSRFSGSGSGTDFTLTISSLQPEDFATYYCQQDYSSPWTFGGGTKLEIKR |
| 0.6 | 0.6 | h14C05.C humanized IgG4 (S228P) kappa (antibody, V domains shown) VH: QVQLVQSGAEVKKPGASVKVSCKASGYTFTNYGMNWVRQAPGQGLEWMGSINTYTGEATYADKFQGRVTMTLDTSTNTAYMELSSLRSEDTAVYYCARGDYYGRGTWFAYWGQGTLVTVSS VL: ETQVTQSPSSLSASVGDRVTITCRASQDVSTAVAWYQQKPGKAPKLLIYSASYRYPGVPSRFSGSGSGTDFTLTISSLQPEDFATYYCQQDYSSPWTFGGGTKLEIKR |
| 0.6 | 0.5 | h14C05.D humanized IgG4 (S228P) kappa (antibody, V domains shown) VH: QVQLVQSGSELKKPGASVKVSCKASGYTFTNYGMNWVRQAPGQGLEWMGSINTYTGEATYADGFTGRFVFSLDTSVNTAYLQISSLKAEDTAVYYCARGDYYGRGTWFAYWGQGTLVTVSS VL: ETVVTQSPATLSLSPGERATLSCRASQDVSTAVAWYQQKPGQAPRLLIYSASYRYPGIPARFSGSGSGTDFTLTISSLEPEDFAVYYCQQDYSSPWTFGGGTKLEIKR |
| 0.8 | 0.7 | h14C05.G humanized IgG4 (S228P) kappa (antibody, V domains shown) VH: QVQLVQSGSELKKPGASVKVSCKASGYTFTNYGMNWVRQAPGQGLEWMGSINTYTGEATYAQGFTGRFVFSLDTSVSTAYLQISSLKAEDTAVYYCARGDYYGRGTWFAYWGQGTLVTVSS VL: ETQVTQSPSSLSASVGDRVTITCRASQDVSTAVAWYQQKPGKAPKLLIYSASYRYPGVPSRFSGSGSGTDFTLTISSLQPEDFATYYCQQDYSSPWTFGGGTKLEIKR |
| 0.8 | 0.7 | h14C05.A humanized IgG4 (S228P) kappa (antibody, V domains shown) VH: EVMLVQSGSELKKPGASVKVSCKASGYTFTNYGMNWVRQAPGQGLEWMGSINTYTGEATYADGFTGRFVFSLDTSANTAYLQISSLKAEDTAVYFCARGDYYGRGTWFAYWGQGTLVTVSS VL: ETQVTQSPSSLSASVGDRVTITCRASQDVSTAVAWYQQKPGKAPKLLIYSASYRYPGVPSRFSGSGSGTDFTLTISSLQPEDFATYYCQQDYSSPWTFGGGTKLEIKR |
| 0.6 | 0.7 | h14C05.F humanized IgG4 (S228P) kappa (antibody, V domains shown) VH: QVQLVQSGSELKKPGASVKVSCKASGYTFTNYGMNWVRQAPGQGLEWMGSINTYTGEATYADDFKGRFVFSLDTSVNTAYLQISSLKAEDTAVYYCARGDYYGRGTWFAYWGQGTLVTVSS VL: ETQVTQSPSSLSASVGDRVTITCRASQDVSTAVAWYQQKPGKAPKLLIYSASYRYPGVPSRFSGSGSGTDFTLTISSLQPEDFATYYCQQDYSSPWTFGGGTKLEIKR |
| 1 | 0.9 | h14C05.H humanized IgG4 (S228P) kappa (antibody, V domains shown) VH: QVQLVQSGAEVKKPGASVKVSCKASGYTFTNYGMNWVRQAPGQGLEWMGSINTYTGEATYAQKFQGRVTMTLDTSTSTVYMELSSLRSEDTAVYYCARGDYYGRGTWFAYWGQGTLVTVSS VL: ETQVTQSPSSLSASVGDRVTITCRASQDVSTAVAWYQQKPGKAPKLLIYSASYRYPGVPSRFSGSGSGTDFTLTISSLQPEDFATYYCQQDYSSPWTFGGGTKLEIKR |
| 0.8 | 1 | h14D12.F humanized IgG4 (S228P) kappa (antibody, V domains shown) VH: QIQLVQSGAEVKKPGASVKVSCKASGYTFTNYGMNWVRQAPGQGLEWMGLINTYTGEPTYADKFQGRVTMTLDTSTSTAYMELSSLRSEDTAVYYCARERIYGYLHYFDYWGQGTTVTVSS VL: DVQMTQSPSSLSASVGDRVTITCRASQSVDYDGDSYMNWYQQKPGKAPKLLIYAASNLESGVPSRFSGSGSGTDFTLTISSLQPEDFATYYCQQSNEDPRTFGGGTKLEIKR |
| 1.1 | 1.2 | h14D12.H humanized IgG4 (S228P) kappa (antibody, V domains shown) VH: QIQLVQSGAEVKKPGASVKVSCKASGYTFTNYGMNWVRQAPGQGLEWMGLINTYTGEPTYADKFQGRVTFTLDTSASTAYMELSSLRSEDTAVYFCARERIYGYLHYFDYWGQGTTVTVSS VL: DIQMTQSPSSLSASVGDRVTITCRASQSVDYDGDSYMNWYQQKPGKAPKLLIYAASNLESGVPSRFSGSGSGTDFTLTISSLQPEDFATYYCQQSNEDPRTFGGGTKLEIKR |
